From patent US5494912A, “9-purinyl phosphonic acid derivitives for treating gout” (Merrell Pharmaceuticals Inc., priority 1995, dated 1996)

How the values were obtained:
[1] = biological target: T1, purine nucleoside phosphorylase (PNP) (Bos taurus, UniProt P55859); experiment: PNP inhibition, coupled xanthine oxidase method of Kalckar, bovine spleen PNP; type: biochemical
T1 construct: Spleen; from tissue; host or cells: spleen
T1 sequence (P55859 1-289): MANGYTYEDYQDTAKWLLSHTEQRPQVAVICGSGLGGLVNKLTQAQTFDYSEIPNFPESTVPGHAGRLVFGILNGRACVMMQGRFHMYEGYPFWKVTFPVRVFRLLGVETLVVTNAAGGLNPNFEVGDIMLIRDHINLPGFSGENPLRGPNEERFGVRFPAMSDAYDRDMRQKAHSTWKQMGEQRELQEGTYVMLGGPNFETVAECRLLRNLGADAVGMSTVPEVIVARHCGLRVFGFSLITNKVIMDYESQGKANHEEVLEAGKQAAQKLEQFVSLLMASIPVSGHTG

[2] = biological target: T2, purine nucleoside phosphorylase (PNP) (Homo sapiens, UniProt P00491); experiment: PNP inhibition, coupled xanthine oxidase method of Kalckar, human erythrocyte PNP; type: biochemical; settings: 1 mM inorganic phosphate, 0.1M HEPES pH 7.4, inosine 0.05-0.15 mM as substrate; read-out: Ki (apparent dissociation constant), Human Erythrocytes PNP
T2 construct: Erythrocytes; from tissue; host or cells: erythrocytes
T2 sequence (P00491 1-289): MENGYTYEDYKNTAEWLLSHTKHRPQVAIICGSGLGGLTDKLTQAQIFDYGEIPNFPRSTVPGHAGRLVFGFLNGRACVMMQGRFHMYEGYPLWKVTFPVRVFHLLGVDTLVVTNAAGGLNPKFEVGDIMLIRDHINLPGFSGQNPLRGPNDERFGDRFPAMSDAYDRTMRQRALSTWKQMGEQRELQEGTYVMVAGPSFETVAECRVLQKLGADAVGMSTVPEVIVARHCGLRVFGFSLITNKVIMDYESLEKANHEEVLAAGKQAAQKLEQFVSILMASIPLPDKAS

[3] = substrate: OC[C@H]1O[C@@H](n2cnc3c(O)ncnc32)[C@H](O)[C@@H]1O; experiment: PNP inhibition, coupled xanthine oxidase method of Kalckar, E. coli PNP; type: biochemical; settings: other: substrate KM for comparison with Ki; pH 7.4
[4] = substrate: OC[C@H]1O[C@@H](n2cnc3c(O)ncnc32)[C@H](O)[C@@H]1O; experiment: PNP inhibition, coupled xanthine oxidase method of Kalckar, bovine spleen PNP; type: biochemical; settings: other: substrate KM for comparison with Ki; pH 7.4
purified protein = substrate: OC[C@H]1O[C@@H](n2cnc3c(O)ncnc32)[C@H](O)[C@@H]1O; experiment: purified protein; settings: other: substrate KM for comparison with Ki; pH 7.4
[5] = substrate: OC[C@H]1O[C@@H](n2cnc3c(O)ncnc32)[C@H](O)[C@@H]1O; experiment: PNP inhibition, coupled xanthine oxidase method of Kalckar, human erythrocyte PNP; type: biochemical; settings: other: substrate KM for comparison with Ki; pH 7.4

Question: Nc1nc2c(ncn2Cc2ccccc2OCCC(F)(F)P(=O)(O)O)c(=O)[nH]1 was tested. Which Ki [1] did it give?
Answer: 250 nM

Question: With Nc1nc2c(ncn2Cc2ccccc2C(F)C(F)(F)P(=O)(O)O)c(=O)[nH]1 (stereo not shown) [[2-[2-[(2-amino-1,6-dihydro-6-oxo-9H-purin-9-yl)methyl]phenyl]-1,1,2-trifluoroethyl]phosphonic acid] as the molecule, how does the Ki [2] read?
Answer: 1.3 nM

Question: Nc1nc2c(ncn2Cc2ccccc2OCP(=O)(O)O)c(=O)[nH]1 [[2-[(2-amino-1,6,dihydro-6-oxo-9H-purin-9yl)methyl]phenoxy]methylphosphonic acid] was tested. Which Ki [1] did it give?
Answer: 7.5 nM

B1: purine nucleoside phosphorylase (PNP) (Escherichia coli K-12) (protein)
chain: ATPHINAEMGDFADVVLMPGDPLRAKYIAETFLEDAREVNNVRGMLGFTGTYKGRKISVMGHGMGIPSCSIYTKELITDFGVKKIIRVGSCGAVLPHVKLRDVVIGMGACTDSKVNRIRFKDHDFAAIADFDMVRNAVDAAKALGIDARVGNLFSADLFYSPDGEMFDVMEKYGILGVEMEAAGIYGVAAEFGAKALTICTVSDHIRTHEQTTAAERQTTFNDMIKIALESVLLGDKE
Question: For B1, which Km [3] is on record?
Answer: 80 µM

B2: purine nucleoside phosphorylase (PNP) (Bos taurus) (protein)
chain: T1 sequence (P55859 1-289)
notes: Spleen; from tissue; host or cells: spleen
Question: Which Km [4] does the source give for B2 here?
Answer: 30 µM

B3: purine nucleoside phosphorylase (PNP) (Rattus norvegicus) (protein)
chain: MENEFTYEDYQRTAEWLRSHTKHRPQVAVICGSGLGGLTAKLTQPQAFDYNEIPNFPQSTVQGHAGRLVFGFLNGRSCVMMQGRFHMYEGYSLSKVTFPVRVFHLLGVDTLVVTNAAGGLNPKFEVGDIMLIRDHINLPGFCGQNPLRGPNDERFGVRFPAMSDAYDRDMRQKAFNAWKQMGEQRELQEGTYIMSAGPTFETVAESCLLRMLGADAVGMSTVPEVIVARHCGLRVFGFSLITNKVVMDYNNLEKASHQEVLEAGKAAAQKLEQFVSILMESIPPRERAN
Question: With B3 as the molecule, how does the Km (purified protein) read?
Answer: 150 µM

B4: purine nucleoside phosphorylase (PNP) (Homo sapiens) (protein)
chain: T2 sequence (P00491 1-289)
notes: Erythrocytes; from tissue; host or cells: erythrocytes
Question: Which Km [5] does the source give for B4 here?
Answer: 150 µM
